# Experimental data as given in patent US20220389120A1 (GENSUN BIOPHARMA, published 2022).
# B1: Bi-T0Z (Fc fusion)
# chain: ESKYGPPCPPCPAPEFLGGPSVFLFPPKPKDTLMISRTPEVTCVVVDVSQEDPEVQFNWYVDGVEVHNAKTKPREEQFNSTYRVVSVLTVLHQDWLNGKEYKCKVSNKGLPSSIEKTISKAKGQPREPQVYTLPPSQEEMGGAQQEECEWDPWTCEHMGSGSATGGSGSTASSGSGSATHQEECEWDPWTCEHMGGTKNQVSLTCLVKGFYPSDIAVEWESNGQPENNYKTTPPVLDSDGSFFLYSRLTVDKSRWQEGNVFSCSVMHEALHNHYTQKSLSLSLGKGGGGSGGGGSGGGGSSDTGRPFVEMYSEIPEIIHMTEGRELVIPCRVTSPNITVTLKKFPLDTLIPDGKRIIWDSRKGFIISNATYKEIGLLTCEATVNGHLYKTNYLTHRQTNTIIDVVLSPSHGIELSVGEKLVLNCTARTELNVGIDFNWEYPSSKHQHKKLVNRDLKTQSGSEMKKFLSTLTIDGVTRSDQGLYTCAASSGLMTKKNSTFVRVHEK
# B2: GS01-A (other)
# heavy: QVQLVQSGAEVKKPGASVKVSCKASGYTFTSYYIHWVRQAPGQGLEWMGWIFPGSGNSKYNENFKGRVTLTADTSTSTVYMELSSLRSEDTAVYYCASETYDYGDYWGQGTLVTVSSASTKGPSVFPLAPCSRSTSESTAALGCLVKDYFPEPVTVSWNSGALTSGVHTFPAVLQSSGLYSLSSVVTVPSSSLGTKTYTCNVDHKPSNTKVDKRVESKYGPPCPPCPAPEFLGGPSVFLFPPKPKDTLMISRTPEVTCVVVDVSQEDPEVQFNWYVDGVEVHNAKTKPREEQFNSTYRVVSVLTVLHQDWLNGKEYKCKVSNKGLPSSIEKTISKAKGQPREPQVYTLPPSQEEMGGAQTNFMPMDDLEQRLYEQFILQQGGGGSGGGGSGGGGSGGGGSTNFMPMDDLEQRLYEQFILQQGLETKNQVSLTCLVKGFYPSDIAVEWESNGQPENNYKTTPPVLDSDGSFFLYSRLTVDKSRWQEGNVFSCSVMHEALHNHYTQKSLSLSLGKGGGGSGGGGSGGGGSGGGGSEVQLVESGGGLVQPGGSLRLSCAASGFTISDYWIHWVRQAPGKGLEWVAGITPAGGYTYYADSVKGRFTISADTSKNTAYLQMNSLRAEDTAVYYCARFVFFLPYAMDYWGQGTLVTVSSGGGGSGGGGSGGGGSGGGGSDIQMTQSPSSLSASVGDRVTITCRASQDVSTAVAWYQQKPGKAPKLLIYSASFLYSGVPSRFSGSGSGTDFTLTISSLQPEDFATYYCQQGYGNPFTFGQGTKVEIK
# light: DIQMTQSPSFLSASVGDRVTITCKASQNVGTNVAWYQQKPGKAPKALIYSASYRYSGVPSRFSGSGSGTEFTLTISSLQPEDFATYYCQQYYSYPYTFGQGTKLEIKRTVAAPSVFIFPPSDEQLKSGTASVVCLLNNFYPREAKVQWKVDNALQSGNSQESVTEQDSKDSTYSLSSTLTLSKADYEKHKVYACEVTHQGLSSPVTKSFNRGEC
# notes: Trispecific PD-1/VEGF/Ang2 antagonist on an IgG4 Fc; also called trispecific construct GS01-A
# B3: GS01-T (other)
# heavy: QVQLVQSGAEVKKPGASVKVSCKASGYTFTSYYIHWVRQAPGQGLEWMGWIFPGSGNSKYNENFKGRVTLTADTSTSTVYMELSSLRSEDTAVYYCASETYDYGDYWGQGTLVTVSSASTKGPSVFPLAPCSRSTSESTAALGCLVKDYFPEPVTVSWNSGALTSGVHTFPAVLQSSGLYSLSSVVTVPSSSLGTKTYTCNVDHKPSNTKVDKRVESKYGPPCPPCPAPEFLGGPSVFLFPPKPKDTLMISRTPEVTCVVVDVSQEDPEVQFNWYVDGVEVHNAKTKPREEQFNSTYRVVSVLTVLHQDWLNGKEYKCKVSNKGLPSSIEKTISKAKGQPREPQVYTLPPSQEEMGGAQQEECEWDPWTCEHMGSGSATGGSGSTASSGSGSATHQEECEWDPWTCEHMGGTKNQVSLTCLVKGFYPSDIAVEWESNGQPENNYKTTPPVLDSDGSFFLYSRLTVDKSRWQEGNVFSCSVMHEALHNHYTQKSLSLSLGKGGGGSGGGGSGGGGSGGGGSEVQLVESGGGLVQPGGSLRLSCAASGFTISDYWIHWVRQAPGKGLEWVAGITPAGGYTYYADSVKGRFTISADTSKNTAYLQMNSLRAEDTAVYYCARFVFFLPYAMDYWGQGTLVTVSSGGGGSGGGGSGGGGSGGGGSDIQMTQSPSSLSASVGDRVTITCRASQDVSTAVAWYQQKPGKAPKLLIYSASFLYSGVPSRFSGSGSGTDFTLTISSLQPEDFATYYCQQGYGNPFTFGQGTKVEIK
# light: B2 light
# notes: Trispecific PD-1/VEGF/Ang1/Ang2 antagonist on an IgG4 Fc; also called trispecific construct GS01-T
# Target: T1, recombinant human Ang2 (Biolegend) (human, UniProt O15123 19-496, limits assumed)
# T1 construct: Bought reagent; also called angiopoietin-2
# T1 sequence (looked up): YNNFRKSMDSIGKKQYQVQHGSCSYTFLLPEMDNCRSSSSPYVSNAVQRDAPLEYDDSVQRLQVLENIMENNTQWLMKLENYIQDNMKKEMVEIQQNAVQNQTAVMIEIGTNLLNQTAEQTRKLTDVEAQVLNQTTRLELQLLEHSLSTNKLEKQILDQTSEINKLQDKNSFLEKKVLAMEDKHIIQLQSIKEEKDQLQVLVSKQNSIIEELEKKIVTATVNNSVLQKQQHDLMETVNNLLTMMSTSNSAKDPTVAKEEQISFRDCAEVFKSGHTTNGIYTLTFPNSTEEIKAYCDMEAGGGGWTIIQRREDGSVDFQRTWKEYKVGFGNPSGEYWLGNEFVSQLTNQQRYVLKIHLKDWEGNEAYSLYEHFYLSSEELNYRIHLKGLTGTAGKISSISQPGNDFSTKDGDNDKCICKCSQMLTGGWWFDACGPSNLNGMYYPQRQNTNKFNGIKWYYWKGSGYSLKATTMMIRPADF
# Assay: Tie2-Ang2 blocking ELISA
# Method: 96-well assay plates were coated with 0.5 ug/ml of recombinant human Ang2 (Biolegend) in PBS at 4° C. overnight, then blocked with 1% BSA/PBS for 1 hour at room temperature. […] After washing with Wash Buffer, Streptavidin-HRP was added to the plate at 1:200 and incubated for 30 minutes at room temperature.
row,Binder,binding result
1,B1,binds
2,B2,binds
3,B3,binds
